Reference: article PMC3958346, “Clearance Kinetics and Matrix Binding Partners of the Receptor for Advanced Glycation End Products” (PLoS ONE, 2014)
“And” between values parts separate entries of the source, which are not always exact repeats. Equal values may be shown once.

Legend:
Assay in all cases: BLI; ForteBIO Octet; purified mouse sRAGE conjugated to amine-reactive sensor tips, matrix protein in solution in varying concentrations; 1800 s association, dissociation in PBS; fit to the 1:1 Langmuir model; constants printed for each analyte concentration
Details in all cases: both partners purified
Collagen I = Collagen I (Sigma product, species and catalogue number not printed (could be rat or bovine). Natural alpha1(I)2 alpha2(I) heterotrimer taken by convention, propeptides removed; hydroxyproline, hydroxylysine, gly)
Collagen IV = Collagen IV (Sigma product, species and catalogue number not printed (human placenta or mouse EHS are both likely). Common alpha1(IV)2 alpha2(IV) heterotrimer taken by convention, 7S domain kept; hydroxyproline, h)
Laminin = molecular target: Laminin

B1: Mouse soluble RAGE (soluble receptor for advanced glycation end products) (natural protein, UniProt Q62151-1 22-330, looked up)
chain: GGQNITARIGEPLVLSCKGAPKKPPQQLEWKLNTGRTEAWKVLSPQGGPWDSVARILPNGSLLLPATGIVDEGTFRCRATNRRGKEVKSNYRVRVYQIPGKPEIVDPASELTASVPNKVGTCVSEGSYPAGTLSWHLDGKLLIPDGKETLVKEETRRHPETGLFTLRSELTVIPTQGGTHPTFSCSFSLGLPRRRPLNTAPIQLRVREPGPPEGIQLLVEPEGGIVAPGGTVTLTCAISAQPPPQVHWIKDGAPLPLAPSPVLLLPEVGHEDEGTYSCVATHPSHGPQESPPVSIRVTETGDEGPAEGS
notes: Mouse soluble RAGE, residues 22-330, signal peptide cleaved off; mass 35742.30 Da; mouse membrane RAGE has a published length of 402 (NP_031451.2); Native protein from tissue; Coupled to amine-reactive sensor tips in one orientation, in solution in the other; also called sRAGE; mouse sRAGE; source: endotoxin removed with Detoxi-Gel polymyxin B resin
Kd (Collagen I): 3.51 nM and 1.62 nM and 1.84 nM
Kd (Collagen IV): 2.57 nM and 3.59 nM and 4.81 nM
koff (Collagen IV): 6.26e-05 s⁻¹ and 7.72e-05 s⁻¹ and 8.1e-05 s⁻¹
kon (Collagen IV): 24400 M⁻¹ s⁻¹ and 21500 M⁻¹ s⁻¹ and 16700 M⁻¹ s⁻¹
koff (Laminin): 0.000191 s⁻¹ and 0.000102 s⁻¹ and 8.02e-05 s⁻¹ and 0.000108 s⁻¹
kon (Laminin): 75400 M⁻¹ s⁻¹ and 106000 M⁻¹ s⁻¹ and 136000 M⁻¹ s⁻¹ and 171000 M⁻¹ s⁻¹
